Where a chain is given by its changes, count along the chain named.
T1: human PTPRD ECD-His6 (ACROBiosystems) (human, UniProt P23468 21-1265)
T1 construct: human receptor-type protein tyrosine phosphatase delta (PTPRD), extracellular domain; No catalogue number printed; also called PTPRδ; source: bought: ACROBiosystems
T1 sequence (looked up): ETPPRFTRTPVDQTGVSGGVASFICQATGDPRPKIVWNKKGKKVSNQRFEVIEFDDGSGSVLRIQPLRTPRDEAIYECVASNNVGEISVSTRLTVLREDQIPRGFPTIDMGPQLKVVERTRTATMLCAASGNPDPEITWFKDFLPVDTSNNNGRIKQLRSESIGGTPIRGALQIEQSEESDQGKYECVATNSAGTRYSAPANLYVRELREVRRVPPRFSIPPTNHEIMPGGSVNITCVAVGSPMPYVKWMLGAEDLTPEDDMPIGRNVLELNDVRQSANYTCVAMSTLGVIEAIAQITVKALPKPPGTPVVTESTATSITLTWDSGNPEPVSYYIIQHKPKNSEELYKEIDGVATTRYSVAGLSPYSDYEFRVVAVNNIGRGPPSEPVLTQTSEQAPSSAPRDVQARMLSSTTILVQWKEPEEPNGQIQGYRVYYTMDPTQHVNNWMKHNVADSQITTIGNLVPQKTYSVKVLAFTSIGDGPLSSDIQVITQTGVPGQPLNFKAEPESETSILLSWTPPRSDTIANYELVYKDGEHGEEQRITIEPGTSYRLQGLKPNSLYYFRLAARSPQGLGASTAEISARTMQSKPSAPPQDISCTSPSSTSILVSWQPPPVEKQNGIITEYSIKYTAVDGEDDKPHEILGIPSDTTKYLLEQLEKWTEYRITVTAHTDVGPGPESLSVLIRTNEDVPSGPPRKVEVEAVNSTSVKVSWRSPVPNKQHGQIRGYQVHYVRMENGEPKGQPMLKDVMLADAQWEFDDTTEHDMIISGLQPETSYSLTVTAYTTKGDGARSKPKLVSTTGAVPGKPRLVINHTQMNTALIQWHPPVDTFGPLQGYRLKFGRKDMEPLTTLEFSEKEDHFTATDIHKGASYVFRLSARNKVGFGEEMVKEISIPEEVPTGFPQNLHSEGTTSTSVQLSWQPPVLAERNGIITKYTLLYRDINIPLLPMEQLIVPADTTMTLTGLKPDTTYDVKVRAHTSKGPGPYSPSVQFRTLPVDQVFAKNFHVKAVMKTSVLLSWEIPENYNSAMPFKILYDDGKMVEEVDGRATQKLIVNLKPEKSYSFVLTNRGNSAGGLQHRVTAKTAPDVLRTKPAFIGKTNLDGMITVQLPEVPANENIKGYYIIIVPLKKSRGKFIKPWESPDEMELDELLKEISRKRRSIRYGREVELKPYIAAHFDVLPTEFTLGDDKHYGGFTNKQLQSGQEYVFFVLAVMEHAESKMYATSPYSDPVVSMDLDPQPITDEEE

T2: SLITRK1-A444S-Fc (human, UniProt Q96PX8 18-616, A444S)
T2 sequence: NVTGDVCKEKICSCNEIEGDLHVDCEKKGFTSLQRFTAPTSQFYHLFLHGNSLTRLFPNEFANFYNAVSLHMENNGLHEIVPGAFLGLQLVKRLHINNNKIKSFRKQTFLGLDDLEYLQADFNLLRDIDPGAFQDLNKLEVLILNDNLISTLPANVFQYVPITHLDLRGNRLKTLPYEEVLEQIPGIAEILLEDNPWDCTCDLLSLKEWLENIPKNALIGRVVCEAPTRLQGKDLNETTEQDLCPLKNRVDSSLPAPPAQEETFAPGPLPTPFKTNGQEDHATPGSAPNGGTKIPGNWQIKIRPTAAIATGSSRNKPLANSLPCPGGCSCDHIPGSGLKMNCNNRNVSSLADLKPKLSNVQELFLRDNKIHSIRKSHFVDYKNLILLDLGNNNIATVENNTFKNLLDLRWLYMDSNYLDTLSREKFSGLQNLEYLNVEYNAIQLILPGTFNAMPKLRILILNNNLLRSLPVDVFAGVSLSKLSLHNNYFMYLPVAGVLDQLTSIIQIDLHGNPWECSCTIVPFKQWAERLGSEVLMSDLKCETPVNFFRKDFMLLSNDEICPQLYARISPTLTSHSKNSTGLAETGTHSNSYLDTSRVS

T3: SLITRK1-S330A-Fc (human, UniProt Q96PX8 18-616, S330A)
T3 sequence: T2 sequence with S313A, S427A

T4: SLITRK1-A444S-Fc (human, UniProt Q96PX8 18-616, A444S)
T4 construct: signal peptide in the construct; human SLITRK1 extracellular domain, amino acid number 1-616 in NP_443142, with the patient-derived variant A444S; A444S was found in 2 of 364 patients with bipolar disorder; made by site-directed mutagenesis; also called SLITRK1 ECD-Fc A444S
T4 sequence (looked up): T2 sequence

T5: SLITRK1-S330A-Fc (human, UniProt Q96PX8 18-616, S330A)
T5 construct: signal peptide in the construct; human SLITRK1 extracellular domain, amino acid number 1-616 in NP_443142, with the patient-derived variant S330A; S330A is a variant found in patients and controls (global MAF 0.002); made by site-directed mutagenesis; also called SLITRK1 ECD-Fc S330A
T5 sequence (looked up): T2 sequence with S313A, S427A

B1: SLITRK1 ECD-immunoglobulin Fc domain-fusion protein (SLITRK1-WT-Fc) (Fc fusion, human, UniProt Q96PX8 18-616, looked up)
chain: T2 sequence with S427A
notes: signal peptide in the construct; human SLITRK1 extracellular domain, amino acid number 1-616 in NP_443142; also called SLITRK1 ECD-Fc; SLITRK1 ECD-Fc fusion protein
B2: human Neurofascin ECD-His6 (8208-NF-050, R&D Systems) (domain or fragment)
chain: IEIPMDLTQPPTITKQSAKDHIVDPRDNILIECEAKGNPAPSFHWTRNSRFFNIAKDPRVSMRRRSGTLVIDFRSGGRPEEYEGEYQCFARNKFGTALSNRIRLQVSKSPLWPKENLDPVVVQEGAPLTLQCNPPPGLPSPVIFWMSSSMEPITQDKRVSQGHNGDLYFSNVMLQDMQTDYSCNARFHFTHTIQQKNPFTLKVLTNHPYNDSSLRNHPDMYSARGVAERTPSFMYPQGTASSQMVLRGMDLLLECIASGVPTPDIAWYKKGGDLPSDKAKFENFNKALRITNVSEEDSGEYFCLASNKMGSIRHTISVRVKAAPYWLDEPKNLILAPGEDGRLVCRANGNPKPTVQWMVNGEPLQSAPPNPNREVAGDTIIFRDTQISSRAVYQCNTSNEHGYLLANAFVSVLDVPPRMLSPRNQLIRVILYNRTRLDCPFFGSPIPTLRWFKNGQGSNLDGGNYHVYENGSLEIKMIRKEDQGIYTCVATNILGKAENQVRLEVKDPTRIYRMPEDQVARRGTTVQLECRVKHDPSLKLTVSWLKDDEPLYIGNRMKKEDDSLTIFGVAERDQGSYTCVASTELDQDLAKAYLTVLGRPDRPRDLELTDLAERSVRLTWIPGDANNSPITDYVVQFEEDQFQPGVWHDHSKYPGSVNSAVLRLSPYVNYQFRVIAINEVGSSHPSLPSERYRTSGAPPESNPGDVKGEGTRKNNMEITWTPMNATSAFGPNLRYIVKWRRRETREAWNNVTVWGSRYVVGQTPVYVPYEIRVQAENDFGKGPEPESVIGYSGEDYPRAAPTEVKVRVMNSTAISLQWNRVYSDTVQGQLREYRAYYWRESSLLKNLWVSQKRQQASFPGDRLRGVVSRLFPYSNYKLEMVVVNGRGDGPRSETKEFTTPEGVPSAPRRFRVRQPNLETINLEWDHPEHPNGIMIGYTLKYVAFNGTKVGKQIVENFSPNQTKFTVQRTDPVSRYRFTLSARTQVGSGEAVTEESPAPPNEAYTNNQADIATQGW

How the values were obtained:
[1] = molecular target: T1, human PTPRD ECD-His6 (ACROBiosystems); test: quartz crystal microbalance; AffinixQ, 27 MHz; about 200 femtomoles SLITRK1 ECD-Fc (WT, S330A or A444S) immobilised through anti-human IgG Fc on the gold resonator; ECD-His6 proteins added at several concentrations; 50 mM Tris-HCl pH 7.6, 15 mM NaCl, 140 mM KCl, 0.5 mM MgCl2, 2 mM CaCl2; 25 ± 1 °C; KD = koff/kon; settings: both partners purified
[2] = molecular target: T6, L1CAM ECD-His6 (777-NC-100, R&D Systems) (UniProt P32004 20-1120); test: as above; settings: both partners purified
T6 construct: L1CAM extracellular domain; source: bought: R&D Systems (777-NC-100)

[3] = molecular target: T2, SLITRK1-A444S-Fc; test: BLI
[4] = molecular target: T3, SLITRK1-S330A-Fc; test: BLI
[5] = molecular target: T4, SLITRK1-A444S-Fc; test: quartz crystal microbalance; AffinixQ, 27 MHz; about 200 femtomoles SLITRK1 ECD-Fc (WT, S330A or A444S) immobilised through anti-human IgG Fc on the gold resonator; ECD-His6 proteins added at several concentrations; 50 mM Tris-HCl pH 7.6, 15 mM NaCl, 140 mM KCl, 0.5 mM MgCl2, 2 mM CaCl2; 25 ± 1 °C; KD = koff/kon; settings: both partners purified
[6] = molecular target: T5, SLITRK1-S330A-Fc; test: as above; settings: both partners purified
[7] = molecular target: B1; test: as above; settings: both partners purified

T6 sequence (P32004 20-1120): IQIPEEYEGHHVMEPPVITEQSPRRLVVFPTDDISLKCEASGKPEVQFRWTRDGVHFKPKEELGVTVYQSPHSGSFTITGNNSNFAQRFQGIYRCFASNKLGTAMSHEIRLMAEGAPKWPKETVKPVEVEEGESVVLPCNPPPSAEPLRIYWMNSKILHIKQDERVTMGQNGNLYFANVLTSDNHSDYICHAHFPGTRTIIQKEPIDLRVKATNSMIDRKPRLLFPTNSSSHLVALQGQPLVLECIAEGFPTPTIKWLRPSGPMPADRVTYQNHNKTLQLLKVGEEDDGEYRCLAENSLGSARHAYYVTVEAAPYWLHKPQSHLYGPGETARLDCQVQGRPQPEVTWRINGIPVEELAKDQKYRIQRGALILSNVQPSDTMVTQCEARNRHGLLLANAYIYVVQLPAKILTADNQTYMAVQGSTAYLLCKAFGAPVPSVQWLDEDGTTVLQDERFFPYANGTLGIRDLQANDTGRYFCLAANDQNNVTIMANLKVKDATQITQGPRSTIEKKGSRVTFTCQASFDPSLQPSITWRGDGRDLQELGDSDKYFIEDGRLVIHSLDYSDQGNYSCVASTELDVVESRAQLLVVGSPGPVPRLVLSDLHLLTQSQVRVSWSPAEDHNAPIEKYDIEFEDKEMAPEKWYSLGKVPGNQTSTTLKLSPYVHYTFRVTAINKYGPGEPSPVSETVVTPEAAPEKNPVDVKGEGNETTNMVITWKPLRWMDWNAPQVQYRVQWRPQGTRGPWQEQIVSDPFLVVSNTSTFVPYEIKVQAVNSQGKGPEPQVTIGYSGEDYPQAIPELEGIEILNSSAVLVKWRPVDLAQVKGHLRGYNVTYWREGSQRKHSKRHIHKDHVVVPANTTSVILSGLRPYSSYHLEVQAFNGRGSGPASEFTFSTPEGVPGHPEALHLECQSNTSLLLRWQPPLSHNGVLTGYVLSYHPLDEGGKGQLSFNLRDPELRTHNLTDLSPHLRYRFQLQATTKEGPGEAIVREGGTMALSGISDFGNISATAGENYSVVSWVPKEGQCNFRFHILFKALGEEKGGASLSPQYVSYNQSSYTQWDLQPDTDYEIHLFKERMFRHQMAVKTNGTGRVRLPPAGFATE

Kd [1] [nM] | Kd [2] [nM] | koff [3] [s⁻¹] | koff [4] [s⁻¹] | Kd [5] [nM] | Kd [6] [nM] | Kd [7] [nM] | Binder
152 | 5.47 | – | – | – | – | – | B1
– | – | 0.00577 | 0.00665 | 14.2 | 59.3 | 16.6 | B2

— PMC9463131, “SLITRK1-mediated noradrenergic projection suppression in the neonatal prefrontal cortex” (Communications Biology, 2022)
